Experimental data taken from patent US20260055201A1 (SHENGHE CHINA BIOPHARMACEUTICAL, published 2026).
Where two headings read alike, the source gives them in different places.

T1: Human TNFR2 His (manufacturer: SINO, CAT: 10417-H08H) (human, UniProt P20333 23-257)
T1 construct: Bought protein; also called human TNFR2 protein; TNFR2 protein; not shown: His tag
T1 sequence (looked up): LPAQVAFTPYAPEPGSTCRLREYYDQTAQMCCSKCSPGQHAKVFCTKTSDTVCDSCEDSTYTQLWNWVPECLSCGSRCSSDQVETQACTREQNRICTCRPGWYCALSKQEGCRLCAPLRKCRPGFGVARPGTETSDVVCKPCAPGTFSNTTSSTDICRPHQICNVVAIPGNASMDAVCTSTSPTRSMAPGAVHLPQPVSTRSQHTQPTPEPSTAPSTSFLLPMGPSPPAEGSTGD

T2: human TNFR2 on TNFR2-CHO-K1 cells (human, UniProt P20333 23-461)
T2 construct: CHO cells overexpressing human TNFR2 by lentiviral transduction
T2 sequence: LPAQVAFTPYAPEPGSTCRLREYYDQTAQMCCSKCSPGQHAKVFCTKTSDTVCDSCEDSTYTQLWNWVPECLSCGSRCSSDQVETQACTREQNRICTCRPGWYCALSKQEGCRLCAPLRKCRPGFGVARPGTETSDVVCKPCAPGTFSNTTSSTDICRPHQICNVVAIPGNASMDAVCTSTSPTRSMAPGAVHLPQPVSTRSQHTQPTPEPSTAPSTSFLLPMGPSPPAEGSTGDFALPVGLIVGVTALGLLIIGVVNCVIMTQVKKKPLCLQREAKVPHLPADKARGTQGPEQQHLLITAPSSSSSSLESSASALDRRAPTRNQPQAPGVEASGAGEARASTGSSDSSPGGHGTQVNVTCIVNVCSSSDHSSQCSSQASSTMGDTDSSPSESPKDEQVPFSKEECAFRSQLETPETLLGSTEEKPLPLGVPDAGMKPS

T3: Human TNFR2 mFc (manufacturer: Kaixia, CAT: TN-HM3R2) (human, UniProt P20333 23-257)
T3 construct: treated as one molecule; also called Human TNFR2 mFC (KaKa, CAT: TNF-HM3R2); human TNFR2 mFC protein; not shown: mFc part
T3 sequence (looked up): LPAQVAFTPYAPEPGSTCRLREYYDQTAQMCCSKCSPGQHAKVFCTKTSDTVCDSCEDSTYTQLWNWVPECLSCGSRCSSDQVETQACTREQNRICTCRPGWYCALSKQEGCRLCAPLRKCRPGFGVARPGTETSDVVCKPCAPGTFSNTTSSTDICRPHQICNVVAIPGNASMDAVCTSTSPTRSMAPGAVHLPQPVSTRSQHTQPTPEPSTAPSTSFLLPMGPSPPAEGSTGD


Assays:
[1] = biological target: T1, Human TNFR2 His (manufacturer: SINO, …); assay: bridging flow cytometry: antibody on CCR8-CHO-K1 cells captures human TNFR2 His, FITC anti-His (PBS background 15212)
Procedure: The cells after adding the sample were incubated at 4° C. for 60 min, and then washed twice with excess FACS buffer. Resuspended the cells in 100 μL FACS buffer and added FITC anti His tag (Abcam, Cat: ab1206) fluorescent secondary antibody carrying FITC to the sample. It was incubated for 30 min and washed twice with excess FACS buffer. Resuspended the cells in flow buffer and then detected and analyzed using a flow cytometer.

[2] = biological target: T2, human TNFR2 on TNFR2-CHO-K1 cells; assay: flow cytometry on TNFR2-CHO-K1 cells, APC anti-human IgG Fc secondary antibody, Average-APC
Procedure: The purified antibodies were diluted to 120 nM with FACS buffer, using this as the starting concentration, and then diluted by 6-fold gradient (7 gradients in total). […] The cells were incubated at 4° C. for 60 min, then washed twice with excess FACS buffer. Resuspended the cells in 100 μL FACS buffer and added fluorescent secondary antibody APC (Biolegend, Cat: 109306) against human IgG FC to the sample. It was incubated for 30 min and washed twice with excess FACS buffer. Resuspended the cells in flow buffer and then detected and analyzed using a flow cytometer.

[3] = biological target: T4, human CCR8 on CCR8-CHO-K1 cells (human, UniProt P51685 1-355); assay: flow cytometry on CCR8-CHO-K1 cells, APC anti-human IgG Fc secondary antibody, Average-APC
T4 construct: CHO cells overexpressing human CCR8 by lentiviral transduction
Procedure: The purified antibodies were diluted to 120 nM with FACS buffer, using this as the starting concentration, and then diluted by 5-fold gradient (6 gradients in total). […] The cells were incubated at 4° C. for 60 min, then washed twice with excess FACS buffer. Resuspended the cells in 100 μL FACS Buffer and Added Fluorescent Secondary antibody APC (Biolegend, Cat: 109306) against human IgG FC to the sample. It was incubated for 30 min and washed twice with excess FACS buffer. Resuspended the cells in flow buffer and then detected and analyzed using a flow cytometer.

[4] = biological target: T3, Human TNFR2 mFc (manufacturer: Kaixia, …); assay: blocking ELISA: human TNFR2 mFc coated, antibody titrated together with human TNF alpha His (blocked ligand), anti-His detection, OD450
Procedure: (§1) The coating solution was poured off. Each well was washed with 1×PBST at 300 μL, washed 4 times with a plate washer, and patted dry on a flat paper. It was blocked with 3% skim milk powder at 300 μL/well, and incubated at 37° C. for 1 h. The blocking solution was poured off, washed 4 times with a plate washer, and patted dry on a flat paper. Negative control and positive control were set up. […] The positive control and antibody were diluted diluted to 100 nM with 3% skim milk powder as the starting concentration, and then diluted by 3-fold gradient (11 gradients in total), and a blank well was set up and only the diluent was added. […] The liquid in the well was discarded, washed 4 times with a plate washer, and patted dry on a flat paper. The anti his antibody (Abcam, Cat: ab1187) was diluted with 3% skim milk powder at 1:5000, 100 μL was added to each well, and incubated at 37° C. for 1 h. It was washed 6 times with a plate washer, and patted dry on a flat paper. TMB color developing solution was added at 100 μL/well, and wrapped with aluminum foil. Color development was performed at 37° C. in the dark for 8 min. Termination solution 1M HCl was added to terminate the color development reaction at 100 μL/well. Readings were taken at 450 nm on an ELISA reader.

[5] = biological target: T3, Human TNFR2 mFc (manufacturer: Kaixia, …); assay: as above; remark: listed apart in the source
Procedure: as §1

| Binder | Average FITC-A [1] | EC50 (read off the curve) [2] | binding result [3] | EC50 (read off the curve) [3] | IC50 (read off the curve) [4] | IC50 (read off the curve) [5] |
| --- | --- | --- | --- | --- | --- | --- |
| TR-F (bispecific antibody, human IgG1, kappa, also called antibody TR-F) light: EVQLVQSGAEVKKPGATVKISCKVSGYSITDYLLHWVQQAPGKCLEWMGWIDPEDAKTKYGQKFQSRVTITADTSTDTAYMELSSLRSEDTAVYYCAANSGTGTMDAWGQGTLVTVSSGGGGSGGGGSGGGGSDIVMTQSPATLSVSPGERATLSCKASQNVGSNVDWYQQKPGQSPRVLIYKASIRYTGIPARFSGSGSGTEFTLTISILQSEDFAVYFCMQSKSYPITFGCGTKLEIKGGGGSGGGGSGGGGSDIVMTQSPPTLSLSPGERATLSCRSSKSLLHSNGNTYLYWFQQKPGQSPQLLIYRMSNLASGIPDRFSGSGSGTDFTLTISRLEPEDFAVYYCMQHLEYPFTFGQGTKLEIKRTVAAPSVFIFPPSDEQLKSGTASVVCLLNNFYPREAKVQWKVDNALQSGNSQESVTEQDSKDSTYSLSSTLTLSKADYEKHKVYACEVTHQGLSSPVTKSFNRGEC heavy: not shown | 27600 | ~0.5 nM | binds | – | – | – |
| TR-G (bispecific antibody, human IgG1, kappa, also called antibody TR-G) light: DIVMTQSPPTLSLSPGERATLSCRSSKSLLHSNGNTYLYWFQQKPGQSPQLLIYRMSNLASGIPDRFSGSGSGTDFTLTISRLEPEDFAVYYCMQHLEYPFTFGQGTKLEIKRTVAAPSVFIFPPSDEQLKSGTASVVCLLNNFYPREAKVQWKVDNALQSGNSQESVTEQDSKDSTYSLSSTLTLSKADYEKHKVYACEVTHQGLSSPVTKSFNRGECGGGGSGGGGSEVQLVESGGGLVQPGGSLRLSCAASGSRLDYYAVAWFRQAPGKEREEVSCITYSGGSTNYAESVKGRFTISRDNSKNTLYLQMNSLRAEDTAVYYCTTEPYGSSCPLSGYDTWGQGTLVTVSS heavy: not shown | 33700 | ~1 nM | – | ~0.9 nM | – | – |
| anti-CCR8 control antibody (variable region SEQ ID NO: 9 and SEQ ID NO: 13, constant region of human IgG1 SEQ ID NO: 54 and SEQ ID NO: 55) (antibody, V domains shown) VH: EVQLVESGGGLVQPGGSLRLSCAASGFTFNTNAMNWVRQAPGKGLEWVGRIRTKSNNYATYYAESVRDRFTISRDDSKNSLYLQMNSLKTEDTAMYYCVRGGYGIRGEYTMDYWGQGTLVTVSS VL: DIVMTQSPPTLSLSPGERATLSCRSSKSLLHSNGNTYLYWFQQKPGQSPQLLIYRMSNLASGIPDRFSGSGSGTDFTLTISRLEPEDFAVYYCMQHLEYPFTFGQGTKLEIKR | – | – | – | ~0.3 nM | – | – |
| TR-E (bispecific antibody, human IgG1, kappa, also called antibody TR-E) light: DIVMTQSPPTLSLSPGERATLSCRSSKSLLHSNGNTYLYWFQQKPGQSPQLLIYRMSNLASGIPDRFSGSGSGTDFTLTISRLEPEDFAVYYCMQHLEYPFTFGQGTKLEIKRTVAAPSVFIFPPSDEQLKSGTASVVCLLNNFYPREAKVQWKVDNALQSGNSQESVTEQDSKDSTYSLSSTLTLSKADYEKHKVYACEVTHQGLSSPVTKSFNRGECGGGGSGGGGSEVQLVQSGAEVKKPGATVKISCKVSGYSITDYLLHWVQQAPGKCLEWMGWIDPEDAKTKYGQKFQSRVTITADTSTDTAYMELSSLRSEDTAVYYCAANSGTGTMDAWGQGTLVTVSSGGGGSGGGGSGGGGSDIVMTQSPATLSVSPGERATLSCKASQNVGSNVDWYQQKPGQSPRVLIYKASIRYTGIPARFSGSGSGTEFTLTISILQSEDFAVYFCMQSKSYPITFGCGTKLEIK heavy: not shown | 61900 | – | – | ~1 nM | – | – |
| TR-H (bispecific antibody, human IgG1, kappa, also called antibody TR-H) light: EVQLVESGGGLVQPGGSLRLSCAASGSRLDYYAVAWFRQAPGKEREEVSCITYSGGSTNYAESVKGRFTISRDNSKNTLYLQMNSLRAEDTAVYYCTTEPYGSSCPLSGYDTWGQGTLVTVSSGGGGSGGGGSGGGGSDIVMTQSPPTLSLSPGERATLSCRSSKSLLHSNGNTYLYWFQQKPGQSPQLLIYRMSNLASGIPDRFSGSGSGTDFTLTISRLEPEDFAVYYCMQHLEYPFTFGQGTKLEIKRTVAAPSVFIFPPSDEQLKSGTASVVCLLNNFYPREAKVQWKVDNALQSGNSQESVTEQDSKDSTYSLSSTLTLSKADYEKHKVYACEVTHQGLSSPVTKSFNRGEC heavy: not shown | 34200 | – | binds | – | ~3 nM | – |
| anti-TNFR2 control antibody (SEQ ID NO: 52 and SEQ ID NO: 53, constant region of human IgG1 SEQ ID NO: 54 and SEQ ID NO: 55) (antibody, V domains shown, also called positive control 1) VH: EVQLVQSGAEVKKPGATVKISCKVSGYSITDYLLHWVQQAPGKGLEWMGWIDPEDAKTKYGQKFQSRVTITADTSTDTAYMELSSLRSEDTAVYYCAANSGTGTMDAWGQGTLVTVSS VL: DIVMTQSPATLSVSPGERATLSCKASQNVGSNVDWYQQKPGQSPRVLIYKASIRYTGIPARFSGSGSGTEFTLTISILQSEDFAVYFCMQSKSYPITFGQGTKLEIKR | – | ~0.3 nM | – | – | – | – |
| TR-A (bispecific antibody, human IgG1, kappa, also called antibody TR-A) light: DIVMTQSPPTLSLSPGERATLSCRSSKSLLHSNGNTYLYWFQQKPGQSPQLLIYRMSNLASGIPDRFSGSGSGTDFTLTISRLEPEDFAVYYCMQHLEYPFTFGQGTKLEIKRTVAAPSVFIFPPSDEQLKSGTASVVCLLNNFYPREAKVQWKVDNALQSGNSQESVTEQDSKDSTYSLSSTLTLSKADYEKHKVYACEVTHQGLSSPVTKSFNRGEC heavy: not shown | 40000 | – | binds | – | – | – |
| TR-B (bispecific antibody, human IgG1, kappa, also called antibody TR-B) light: DIVMTQSPPTLSLSPGERATLSCRSSKSLLHSNGNTYLYWFQQKPGQSPQLLIYRMSNLASGIPDRFSGSGSGTDFTLTISRLEPEDFAVYYCMQHLEYPFTFGQGTKLEIKRTVAAPSVFIFPPSDEQLKSGTASVVCLLNNFYPREAKVQWKVDNALQSGNSQESVTEQDSKDSTYSLSSTLTLSKADYEKHKVYACEVTHQGLSSPVTKSFNRGEC heavy: not shown | 29000 | – | binds | – | – | – |
| TR-D (bispecific antibody, human IgG1, kappa, also called antibody TR-D) light: DIVMTQSPPTLSLSPGERATLSCRSSKSLLHSNGNTYLYWFQQKPGQSPQLLIYRMSNLASGIPDRFSGSGSGTDFTLTISRLEPEDFAVYYCMQHLEYPFTFGQGTKLEIKRTVAAPSVFIFPPSDEQLKSGTASVVCLLNNFYPREAKVQWKVDNALQSGNSQESVTEQDSKDSTYSLSSTLTLSKADYEKHKVYACEVTHQGLSSPVTKSFNRGEC heavy: not shown | 30300 | ~0.1 nM | binds | – | – | ~2 nM |
| TR-C (bispecific antibody, human IgG1, kappa, also called antibody TR-C) light: DIVMTQSPPTLSLSPGERATLSCRSSKSLLHSNGNTYLYWFQQKPGQSPQLLIYRMSNLASGIPDRFSGSGSGTDFTLTISRLEPEDFAVYYCMQHLEYPFTFGQGTKLEIKRTVAAPSVFIFPPSDEQLKSGTASVVCLLNNFYPREAKVQWKVDNALQSGNSQESVTEQDSKDSTYSLSSTLTLSKADYEKHKVYACEVTHQGLSSPVTKSFNRGEC heavy: not shown | 89500 | – | – | ~1 nM | – | – |
